EC50 of the agonist-induced change of the BRET ratio of the MOR BRET conformation sensor, EC50 of agonist-induced arrestin3 interaction with MOR-nLuc (BRET, with GRK2) and EC50 of Go activation (BRET-based activity sensor Go1-case) data for one substance are collected here from article PMC11806106.

Test [1] concerns the target MOR BRET sensor (G267-MOR sensor with mTurq2 replaced by nLuc2) (rat) (UniProt P33535).
For test [2], the target named is MOR-nLuc (rat µ opioid receptor, wild type, with C-terminal nLuc) (rat) (UniProt P33535).
For test [3], the target named is rat µ opioid receptor (MOR-wt) (rat) (UniProt P33535).

As for DAMGO (peptide), in test [1], the EC50 of the agonist-induced change of the BRET ratio of the MOR BRET conformation sensor was found to be 0.445 µM. For the same substance, the EC50 of agonist-induced arrestin3 interaction with MOR-nLuc (BRET, with GRK2) in test [2] was determined as 0.282 µM. In test [3], this substance came in with an EC50 of Go activation (BRET-based activity sensor Go1-case) of 0.00292 µM.
